Where a chain is given by its changes, count along the chain named. “Also recorded” adds a separate entry of the source.
Columns and labels:
[1] = biological target: FcγRIIa on non-fixed human platelets (also as present in platelet lysates) (human) (UniProt P12318); assay: cell-based or functional assay
[2] = system: platelets
[3] = system: FcγRIIa; assay: Phosphorylation of FcγRIIa during platelet activation (immunoprecipitation, Western blot with anti-phosphotyrosine 4G10); type: cell-based, human
Protocol: FIGS. 1A-1E are western blots and graphs showing that platelet activation results in FcγRIIa being phosphorylated: Platelets (2×10^8 in 0.5 ml) from low-risk subjects isolated with the use of gel filtration were exposed to no agonist (FIG. 1E) or to thrombin (50 nM) (FIG. 1A), convulxin (10 ng/ml) (FIG. 1B), ADP (25 μM) (FIG. 1C), and PAF (100 nM) (FIG. 1D) for selected intervals before preparation of platelet lysates. FcγRIIa was separated by immunoprecipitation and Western blots were probed with an antiphosphotyrosine antibody (4G10), stripped, and re-probed with anti-FcγRIIa to confirm equal loading (data not shown). Fluorescence intensity of bands was quantified with the use of a Li-Cor system. Results (n=3-5 for each condition) are peak intensity that is not altered by adjusting the contrast of the image or the size of the area of interest, and were compared with those obtained when no agonist was used (Student's t test, *p<0.05, **p<0.01). […]
Immunoprecipitation was performed overnight at 4° C. with the use of goat anti-CD32A/C (Santa Cruz Biotechnology, Santa Cruz, Calif.) or a mouse anti-phosphotyrosine conjugated with magnetic beads (4G10, Millipore, Billerica, Mass.). […] Bands were detected with the use of use of a Li-Cor Odyssey Infrared Imaging system (Li-Cor Biosciences, Lincoln, Nebr.) or chemiluminescence (Amersham/General Electric Healthcare, Piscataway, N.J.).

[4] = system: Megakaryocyte cell line; assay: IFNγ effect on FcγRIIa expression by megakaryocyte cell line; type: cell-based; conditions: IFNγ treatment, FIG. 10
From the text: The graphs on the lower aspect of the figure show evidence of differentiation of the stem cells into megakaryocytes.

[5] = system: human stem cell derived Megakaryocytes; assay: IFNγ effect on FcγRIIa expression by human stem cell derived megakaryocytes; type: cell-based; conditions: IFNγ treatment, FIG. 11
From the text: The graphs on the lower aspect of the figure show evidence of differentiation of the cells into megakaryocytes.

[6] = biological target: T1, FcγRIIa on formaldehyde-fixed human platelets (human, UniProt P12318 34-317, exposed to formaldehyde fixative (residues not stated)); assay: platelets of two subjects, fixed (FIG. 29)
T1 construct: Same receptor as m3, but on platelets fixed before exposure to the antibody; also called FcγRIIa on fixed platelets
T1 sequence: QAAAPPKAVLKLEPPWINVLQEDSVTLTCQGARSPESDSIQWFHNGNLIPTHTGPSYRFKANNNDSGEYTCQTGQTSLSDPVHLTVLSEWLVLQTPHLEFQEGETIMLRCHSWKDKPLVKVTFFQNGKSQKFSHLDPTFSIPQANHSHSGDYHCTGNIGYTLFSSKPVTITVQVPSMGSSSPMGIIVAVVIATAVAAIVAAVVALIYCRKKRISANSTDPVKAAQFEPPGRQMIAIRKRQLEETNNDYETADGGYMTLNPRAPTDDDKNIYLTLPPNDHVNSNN

[7] = biological target: T2, FcγRIIa on non-fixed human platelets (also as present in platelet lysates) (human, UniProt P12318 34-317); assay: platelets of two subjects, non-fixed (FIG. 29)
T2 construct: Endogenous receptor of platelets from human subjects; In immunoprecipitation experiments the receptor came from platelet lysates; also called platelet FcγRIIa; CD32
T2 sequence: T1 sequence

[8] = biological target: T2, FcγRIIa on non-fixed human platelets …; assay: immunoprecipitation with platelet lysates
[9] = biological target: T1, FcγRIIa on formaldehyde-fixed human …; assay: fluorochrome labeled antibody on fixed platelets
[10] = biological target: T3, FcγRIIa on platelets (Homo sapiens, UniProt P12318); assay: Flow cytometry binding/quantification of FcγRIIa on fixed and non-fixed platelets; conditions: FIG. 29
T3 construct: endogenous in cells; host or cells: platelets from subjects' blood samples, formaldehyde-fixed or non-fixed
T3 sequence (P12318 34-317): T1 sequence with G54Q
From the text: One objective was to identify an antibody that was capable of quantifying FcγRIIa on the surface of platelets that were fixed, similar to quantification of FcγRIIa on non-fixed platelets. To make this assessment, selected antibodies were fluorochrome labeled. An objective was to identify a clone that could quantify FcγRIIa on the surface of fixed platelets within 10% of the quantification of previously-known antibodies on non-fixed platelets. Based on these experiments, two clones were identified, they produced the antibodies FcYRIIa-5G1 and FcYRIIa-11F9 described above.
Lysis of red blood cells can also be performed by the addition of 3% acetic acid (120 μl) to 5 μl of blood. • Incubate for 15 minutes • Add 800 μl PBS • Centrifuge for 2 minutes at 1,200 g • Decant liquid • Re-suspend platelet pellet in 1,000 μl PBS • Centrifuge for 2 minutes at 1,200 g • Decant liquid • Re-suspend platelet pellet in 1,000 μl PBS • Centrifuge for 2 minutes at 1,200 g • Re-suspend platelet pellet in 800 μl PBS with 0.2% BSA and store platelets at room temperature for at least 1 hour before assay (blocking step) • Assay tube final volume=35 μl, adding: • 5 μl of re-suspended platelet • 0.5 μg of 5G1-PE antibody • 2 μl of CD42bPECy5 (Becton Dickinson) • QS with PBS/BSA 0.2% • Incubate antibodies and platelets for 1 hours at room temperature • Dilute with 500 μl of PBS • Analyze with flow cytometry
• Analyze platelet samples using template 032522 FCquant 5G1R-PE 375V_T. Set acquisition volume to 200 ul and run samples at 200 ul/min. count 10,000 events in platelet gate (CD42b positive events). • Platelets are first gated on a FSC SSC plot • A second gate for CD42b PECY5 positive events is created • A histogram plot gated on the CD42b positive events is created. A gate is set to the right of a non-immune IgG control. The x-mean of the histogram gate positive for 5G1R-PE binding is reported • Assay tube for IgG control, adding: • 5 μl of re-suspended platelet • 2 μl of IgG-PE • 2 μl of CD42bPECy5 (Becton Dickinson) • 26 μl PBS/BSA 0.2% […]

Molecule: coagulation Factor XIII (from UniProt P00488 2-732) (enzyme)
- ADP-induced activation of platelets (surface expression of P-selectin), fold induction [1]: 3.9 fold

Molecule: CCCCS(=O)(=O)N[C@@H](Cc1ccc(OCCCCC2CCNCC2)cc1)C(=O)O [tirofiban]
- agonist-induced activation of platelets ([2]; agonists thrombin, convulxin, ADP, PAF, PAC-1 binding or P-selectin, IV.3 100 μg/ml, PP2 20 μM, tirofiban 0.5 μg/ml): did not attenuate the activation of platelets
- activation of platelets caused by coagulation Factor XIII ([2]; summary in words): abolished
- amplification of platelet activation induced by fibrinogen ([2]; summary in words): not by tirofiban
- binding of PAC-1 to platelets ([2]; tirofiban 0.5 μg/ml): blocked completely the binding of PAC-1 to platelets; also recorded: abolished binding of PAC-1 to platelets
- agonist-induced surface expression of P-selectin ([2]; tirofiban, n=3 subjects, FIG. 5D): did not attenuate agonist-induced P-selectin expression

Molecule: CC(C)(C)n1nc(-c2ccc(Cl)cc2)c2c(N)ncnc21 [PP2]
- phosphorylation of FcγRIIa during platelet activation ([3]; IV.3 Fab 100 μg/ml, PP2 20 μM): prevented phosphorylation of FcγRIIa

Molecule: Nc1ncnc2c1ncn2[C@@H]1O[C@H](COP(=O)(O)OP(=O)(O)O)[C@@H](O)[C@H]1O [ADP, adenosine diphosphate]
- time after exposure at which phosphorylation of FcγRIIa was greatest ([3]; platelets from low-risk subjects, thrombin 50 nM, convulxin 10 ng/ml, ADP 25 μM, PAF 100 nM): 3 to 5 min

Molecule: fibrinogen (from UniProt P02671 20-629; P02675 31-491; P02679 27-437)
- ADP induced activation of platelets (surface expression of P-selectin), fold induction [1]: 1.5 fold

Molecule: IFNγ: cytokine that increases FcγRIIa expression by megakaryocytes
- expression of FcγRIIa by Megakaryocyte cell line [4]: increases the expression of FcγRIIa
- expression of FcγRIIa by human stem cell derived Megakaryocytes [5]: increases the expression of FcγRIIa

Molecule: Fab fragment of IV.3
- ADP induced activation of platelets with added fibrinogen after pretreatment with IV.3 (100 µg/ml), fold induction [1]: 0.9 fold
- ADP-induced activation of platelets with added Factor XIII after pretreatment with IV.3 (100 µg/ml), fold induction [1]: 0.7 fold

B1: Antibody FcYRIIa-5G1 (antibody, V domains shown)
VH: EVQLQESGPELVKPGASVKISCKASGYTFTTYYIHWVKQRPGQGLEWIGWIFPGSSNTFYNEKFKGKATLTADTSAITAYMQLNSLTSEDSAVYFCSRYYYDYGYWGQGTLVTVSA
VL: ENVLTQSPAIMSASPGEKVTMTCSASSSVRYMQWYQQKSNTSPKLWIYDTSKLASGVPGRFSGSGSGNSYFLTISSMEAEDVATYHCFQGSGYPLTFGGGTKLEIK
notes: Monoclonal antibody from a mouse hybridoma; Fluorochrome (phycoerythrin) labelled for flow cytometry; also called 5G1 antibody; 5G1-PE
- binding result [6]: binds
- binding result [7]: binds

B2: Antibody FcYRIIa-11F9 (antibody, V domains shown)
VH: EVQLQESGPELVKPGASVRISCKASGYTFTNSYMHWVKQRPGQGLEWIGWIYPENINTYYNEKFKGKATLTADRSSSTAYMQLNSLASEDSAVYFCARFYYGFGYWGQGTTLTVSS
VL: DIVMTQSHKFMSTSVGDRVIITCKASQNVISAVAWYQQKPGHSPKLLIYWASTRHTGVPDRFTGSGSGTDFTLTINSVQSEDLADYFCQQYGRYPYTFAGGTKLEIK
notes: Monoclonal antibody from a mouse hybridoma; also called 11F9 antibody
- binding result [8]: binds
- binding result [9]: binds

B3: FcYRIIa-5G1: monoclonal antibody binding FcγRIIa; heavy chain SEQ ID NO 4, light chain SEQ ID NO 9 (antibody, V domains shown)
VH: B1 VH
VL: B1 VL
- binding to FcγRIIa on fixed platelets compared with non-fixed platelets [10]: binds to a greater extent to FcγRIIa on fixed platelets
- binding to FcγRIIa on fixed platelets ([10]; fixed platelets, two subjects): binds at a higher level on fixed platelets
- binding to FcγRIIa on non-fixed platelets versus commercially available antibody FLI8.26 ([10]; non-fixed platelets, two subjects): binds to a lesser extent than the commercially available antibody

— US20260055190A1, “ANTIBODIES FOR PLATELET FCyRIIA AND RELATED METHODS OF USE” (UNIVERSITY OF VERMONT AND STATE AGRICULTURAL COLLEGE, priority 2022, published 2026)
